In patent US20100285005A1 (Eli Lilly, published 2010):

Columns and labels:
[1] = biological target: human CXCR4 receptor with a C-terminal linear C9 peptide tag (human); assay: SPR (Biacore 2000), C9-tagged CXCR4 captured by 1D4 antibody, antibody injected, 4 °C
[2] = biological target: T1, human CXCR4, endogenous on human cells (CCRF-CEM leukemia cells; U937 histiocytic lymphoma cells) (human, UniProt P61073 1-352); assay: inhibition of 125I-SDF-1α binding to CCRF-CEM cells expressing endogenous CXCR4 (SPA); antibody III's own average value
T1 construct: whole, on cells
Experimental: SDF-1 binding to CXCR4 is the first step in activating the CXCR4 intracellular signaling pathway. To determine if an antibody can block the interaction of SDF-1 and CXCR4, human leukemia CCRF-CEM cells expressing endogenous CXCR4 are used in an ¹²⁵I-labeled SDF-1α binding assay. The assay is performed in a 96-well U-bottom, non-treated polystyrene plate. The binding assay buffer is prepared with RPMI 1640 medium containing 10 mM N-2-hydroxyethylpiperazine-N′-2-ethanesulfonic acid (HEPES), pH 7.5, and 0.2% bovine serum albumin (BSA). Briefly, 200 μL reaction mixtures containing 300 pM ligand (60 pM ¹²⁵I-SDF-1α and 240 pM cold SDF-1α), different concentrations of the test antibody in assay buffer, 100,000 human CCRF-CEM cells, and 0.5 mg scintillation proximity assay (SPA) beads are incubated at room temperature for 2 hours. Plates are then counted in a liquid scintillation and luminescence counter in SPA mode. CXCR4 antagonists decrease the bound radioactivity in this assay in a dose-dependent manner. The inhibitory potency (IC₅₀) of a test antibody is calculated using GraphPad Prism software, based on the dose-dependent decrease of bound radioactivity.

[3] = biological target: T1, human CXCR4, endogenous on human cells …; assay: cell-based or functional assay

T1 sequence (P61073 whole entry): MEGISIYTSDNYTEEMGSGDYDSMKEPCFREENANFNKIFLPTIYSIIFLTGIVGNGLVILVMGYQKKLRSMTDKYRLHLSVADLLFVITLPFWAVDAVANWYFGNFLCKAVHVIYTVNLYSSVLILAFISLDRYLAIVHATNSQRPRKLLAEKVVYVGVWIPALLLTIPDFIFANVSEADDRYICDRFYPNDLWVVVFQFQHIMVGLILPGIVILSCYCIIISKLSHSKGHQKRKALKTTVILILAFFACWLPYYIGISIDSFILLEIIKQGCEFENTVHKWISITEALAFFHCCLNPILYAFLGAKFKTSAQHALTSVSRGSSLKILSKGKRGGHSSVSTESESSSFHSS

Row | Binder | Kd [1] | koff [1] | kon [1] | IC50 [2] | IC50, chemotaxis assay (SDF-1α-driven migration of U937 cells) [3]
1 | Antibody III (antibody, human IgG4 S228P, kappa, F234A L235A, V domains shown, Human engineered anti-CXCR4 antibody; also called the antibody III) VH: EVQLVESGGGLVQPGGSLRLSCAASGFTSTDYYFSWVRQAPGKGLEWVGFIRYKSKGYTTEYSGSVKGRFTISRDDSKNSLYLQMNSLKTEDTAVYYCAREPITTDPRDYWGQGTLVTVSS VL: DIVMTQSPDSLAVSLGERATINCKSSQSLFNSRTRKKYLAWYQQKPGQPPKLLIYWASKRKSGVPDRFSGSGSGTDFTLTISSLQAEDVAVYYCKQSRFLRAFGQGTKLEIKR | 1.54 nM | 0.00172 s⁻¹ | 1.12e+06 M⁻¹ s⁻¹ | 0.45 nM | –
2 | Antibody IV (antibody, human IgG4 S228P, kappa, F234A L235A, V domains shown) VH: EVQLVESGGGLVQPGGSLRLSCAASGFTSTDYYFSWVRQAPGKGLEWVGFIRNKRKGYTTEYSGSVKGRFTISRDDSKNSLYLQMNSLKTEDTAVYYCAREPITTDPRDYWGQGTLVTVSS VL: DIVMTQSPDSLAVSLGERATINCKSSQSLFNSRTRKKYLAWYQQKPGQPPKLLIYWASKRKSGVPDRFSGSGSGTDFTLTISSLQAEDVAVYYCKQSRFLRAFGQGTKLEIKR | 5.14 nM | 0.00398 s⁻¹ | 774000 M⁻¹ s⁻¹ | – | ≤ 30 nM
3 | Antibody I (antibody, human IgG4 S228P, kappa, F234A L235A, V domains shown) VH: EVQLVESGGGLVQPGGSLRLSCAASGFTSTDYYFSWVRQAPGKGLEWVGFIRTKSKGYTTEYSGSVKGRFTISRDDSKNSLYLQMNSLKTEDTAVYYCAREPITTDPRDYWGQGTLVTVSS VL: DIVMTQSPDSLAVSLGERATINCKSSQSLFNSRTRKKYLAWYQQKPGQPPKLLIYWASKRKSGVPDRFSGSGSGTDFTLTISSLQAEDVAVYYCKQSRFLRAFGQGTKLEIKR | 0.68 nM | 0.00161 s⁻¹ | 2.36e+06 M⁻¹ s⁻¹ | – | ≤ 30 nM
4 | Antibody II (antibody, human IgG4 S228P, kappa, F234A L235A, V domains shown) VH: EVQLVESGGGLVQPGGSLRLSCAASGFTSTDYYFSWVRQAPGKGLEWVGFIRSKSKGYTTEYSGSVKGRFTISRDDSKNSLYLQMNSLKTEDTAVYYCAREPITTDPRDYWGQGTLVTVSS VL: DIVMTQSPDSLAVSLGERATINCKSSQSLFNSRTRKKYLAWYQQKPGQPPKLLIYWASKRKSGVPDRFSGSGSGTDFTLTISSLQAEDVAVYYCKQSRFLRAFGQGTKLEIKR | 0.72 nM | 0.00181 s⁻¹ | 2.5e+06 M⁻¹ s⁻¹ | – | ≤ 30 nM
5 | Antibody V (antibody, human IgG4 S228P, kappa, F234A L235A, V domains shown) VH: EVQLVESGGGLVQPGGSLRLSCAASGFTSTDYYFSWVRQAPGKGLEWVGFIRHKSKGYTTEYSGSVKGRFTISRDDSKNSLYLQMNSLKTEDTAVYYCAREPITTDPRDYWGQGTLVTVSS VL: DIVMTQSPDSLAVSLGERATINCKSSQSLFNSRTRKKYLAWYQQKPGQPPKLLIYWASKRKSGVPDRFSGSGSGTDFTLTISSLQAEDVAVYYCKQSRFLRAFGQGTKLEIKR | 0.88 nM | 0.00168 s⁻¹ | 1.91e+06 M⁻¹ s⁻¹ | – | ≤ 30 nM
